Experimental data from patent US20120219562A1 (AbbVie / Abbott, published 2012).
Changes are numbered by the printed parent chain.

T1: human interleukin 12 (human, UniProt P29459 23-219; P29460 23-328)
T1 construct: heterodimer of p35 and p40 linked by a disulfide bridge; also called hIL-12; IL-12
T1 sequence (looked up) 1: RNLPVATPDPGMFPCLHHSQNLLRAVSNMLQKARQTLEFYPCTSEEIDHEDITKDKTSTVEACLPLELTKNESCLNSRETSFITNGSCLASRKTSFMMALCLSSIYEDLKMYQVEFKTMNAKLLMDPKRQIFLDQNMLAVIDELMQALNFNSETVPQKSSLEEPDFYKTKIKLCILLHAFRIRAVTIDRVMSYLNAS
T1 sequence (looked up) 2: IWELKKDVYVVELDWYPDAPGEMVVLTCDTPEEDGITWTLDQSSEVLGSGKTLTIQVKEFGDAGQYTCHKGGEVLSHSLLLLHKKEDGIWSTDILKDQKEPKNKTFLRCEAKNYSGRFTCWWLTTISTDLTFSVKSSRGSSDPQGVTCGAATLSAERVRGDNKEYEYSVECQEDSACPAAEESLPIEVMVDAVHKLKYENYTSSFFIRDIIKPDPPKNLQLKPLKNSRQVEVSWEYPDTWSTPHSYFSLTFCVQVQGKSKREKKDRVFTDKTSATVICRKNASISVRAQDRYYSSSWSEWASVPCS

B1: 170-21 (antibody, V domains shown)
VH: QVQLVQSGGGVVQPGRSLRLSCAASGFTFSSYGMHWVRQAPGKGLEWVAFIRYDGSNKYYADSVKGRFTISRDNSKNTLYLQMKSLRAEDTAVYYCTTHGSQDNWGQGTMVTVSS
VL: SYVLTQPPSVSGTPGQRVTISCSGGRSNIGSNTVKWYQQLPGTAPKLLIYGNDQRPSGVPDRFSGSKSGTSASLAITGVQAEDEADYYCQSYDRGFTGPRLFGTGTKVTVL
B2: 73-C6 (antibody, V domains shown)
VH: B1 VH with H99S, Q102Y, N104Y
VL: SYVLTQPPSVSGTPGQRVTISCSGGRSNIGSNTVKWYQQLPGTAPKLLIYGNDQRPSGVPDRFSGSKSGTSASLAITGVQAEDEADYYCQSYDTGFTGSRVFGTGTKVTVLG
B3: 73-D4 (antibody, V domains shown)
VH: B1 VH with H99S, Q102Y, N104Y
VL: B2 VL with Q90H, G95K
B4: M2 E1 (antibody, V domains shown)
VH: B1 VH with T97K, Q102H
VL: B2 VL with S91T, T94K, R100S
B5: 73-E6 (antibody, V domains shown)
VH: B1 VH with H99S, Q102Y, N104Y
VL: B2 VL with Q90H, D93E, T94S
B6: 73-G2 (antibody, V domains shown)
VH: B1 VH with H99S, Q102Y, N104Y
VL: B2 VL with Q90H, S91T, Y92N, T94S
B7: 73-D5 (antibody, V domains shown)
VH: B1 VH with H99S, Q102Y, N104Y
VL: B2 VL with Q90H, Y92S, T94S
B8: A8 (antibody, V domains shown)
VH: B1 VH with T97K, Q102H
VL: B1 VL with F96K, T97S, G98N, P99K, R100M
B9: 73-C5 (antibody, V domains shown)
VH: B1 VH with H99S, Q102Y, N104Y
VL: B2 VL with Q90H, Y92H, T94R, G95D
B10: 73-C2 (antibody, V domains shown)
VH: B1 VH with H99S, Q102Y, N104Y
VL: B2 VL with T94S, G95E
B11: 73-H2 (antibody, V domains shown)
VH: B1 VH with H99S, Q102Y, N104Y
VL: B2 VL with T94S
B12: 73-F6 (antibody, V domains shown)
VH: B1 VH with H99S, Q102Y, N104Y
VL: B2 VL with Q90H, T94M
B13: 73-F3 (antibody, V domains shown)
VH: B1 VH with H99S, Q102Y, N104Y
VL: B2 VL with T94A, G95P, F96W, T97S
B14: M2 D3 (antibody, V domains shown)
VH: B1 VH with T97K, Q102H
VL: B2 VL with T94N, G95R, F96L
B15: 73-G3 (antibody, V domains shown)
VH: B1 VH with H99S, Q102Y, N104Y
VL: B2 VL with Q90H, G95R
B16: M2 B3 (antibody, V domains shown)
VH: B1 VH with T97K, Q102H
VL: B2 VL with T94I, F96M
B17: C2 (antibody, V domains shown)
VH: B1 VH with T97K, Q102H
VL: B1 VL with F96L, T97N, G98P, P99S, R100A, L101T
B18: 73-G6 (antibody, V domains shown)
VH: B1 VH with H99S, Q102Y, N104Y
VL: B2 VL with D93N, G95D
B19: M2 D5 (antibody, V domains shown)
VH: B1 VH with T97K, Q102H
VL: B2 VL with T94S, G95S, F96S
B20: 73-E3 (antibody, V domains shown)
VH: B1 VH with H99S, Q102Y, N104Y
VL: B2 VL with T94S, G95D
B21: M2 B1 (antibody, V domains shown)
VH: B1 VH with T97K, Q102H
VL: B2 VL with T94S, F96L
B22: M2 C5 (antibody, V domains shown)
VH: B1 VH with T97K, Q102H
VL: B2 VL with G95A, F96L
B23: M2 F1 (antibody, V domains shown)
VH: B1 VH with T97K, Q102H
VL: B2 VL with T94S, G95D, F96V
B24: M2 D4 (antibody, V domains shown)
VH: B1 VH with T97K, Q102H
VL: B2 VL with D93E, G95S
B25: M2 D1 (antibody, V domains shown)
VH: B1 VH with T97K, Q102H
VL: B2 VL with T94I, G95R
B26: 73-G4 (antibody, V domains shown)
VH: B1 VH with H99S, Q102Y, N104Y
VL: B2 VL with T94M, G95R
B27: 73-D1 (antibody, V domains shown)
VH: B1 VH with H99S, Q102Y, N104Y
VL: B2 VL with Q90H, T94S
B28: 73-F5 (antibody, V domains shown)
VH: B1 VH with H99S, Q102Y, N104Y
VL: B2 VL with T94S, G95D, R100K
B29: M2 B5 (antibody, V domains shown)
VH: B1 VH with T97K, Q102H
VL: B2 VL with T94S, F96V
B30: M2 E6 (antibody, V domains shown)
VH: B1 VH with T97K, Q102H
VL: B2 VL with G98K
B31: M2 B6 (antibody, V domains shown)
VH: B1 VH with T97K, Q102H
VL: B1 VL with F96L, G98A, P99S, L101V
B32: M2 A2 (antibody, V domains shown)
VH: B1 VH with T97K, Q102H
VL: B2 VL with T94R, F96I, T97H
B33: 73-B2 (antibody, V domains shown)
VH: B1 VH with H99S, Q102Y, N104Y
VL: B2 VL with Q90H, Y92S, D93E, T94S
B34: M2 D2 (antibody, V domains shown)
VH: B1 VH with T97K, Q102H
VL: B2 VL with T94I, G95R, F96S
B35: 73-G5 (antibody, V domains shown)
VH: B1 VH with H99S, Q102Y, N104Y
VL: B2 VL with Q90H, Y92S, T94S, G95D, F96S
B36: M2 H5 (antibody, V domains shown)
VH: B1 VH with T97K, Q102H
VL: B2 VL with T94A
B37: 73-H3 (antibody, V domains shown)
VH: B1 VH with H99S, Q102Y, N104Y
VL: B2 VL with Q90H, T94N
B38: M2 D6 (antibody, V domains shown)
VH: B1 VH with T97K, Q102H
VL: B2 VL with T94S, G98A
B39: M2 E2 (antibody, V domains shown)
VH: B1 VH with T97K, Q102H
VL: B1 VL with R94N, P99S, L101V
B40: M2 A5 (antibody, V domains shown)
VH: B1 VH with T97K, Q102H
VL: B2 VL with T94I, F96S

Biological target: T1, human interleukin 12
Assay: SPR (BIAcore)

With B1 as the binder, how does the koff read?
Its koff is 0.00389 s⁻¹.

For B2, which koff is on record?
The koff was 0.00396 s⁻¹.

With B3 as the binder, how does the koff read?
Its koff is 0.00536 s⁻¹.

B4 was tested. Which koff did it give?
The koff was 0.0532 s⁻¹.

With B5 as the binder, how does the koff read?
Its koff is 0.00417 s⁻¹.

With B6 as the binder, how does the koff read?
Its koff is 0.00398 s⁻¹.

For B7, which koff is on record?
The koff was 0.00357 s⁻¹.

Which koff does the source give for B8 here?
The koff was 0.00237 s⁻¹.

How did the koff turn out when B9 was run?
The koff was 0.00484 s⁻¹.

B10 was tested. Which koff did it give?
Its koff is 0.00379 s⁻¹.

How did the koff turn out when B11 was run?
Its koff is 0.00593 s⁻¹.

Which koff does the source give for B12 here?
The koff was 0.00587 s⁻¹.

How did the koff turn out when B13 was run?
Its koff is 0.00708 s⁻¹.

B14 was tested. Which koff did it give?
Its koff is 0.0333 s⁻¹.

Which koff does the source give for B15 here?
Its koff is 0.0035 s⁻¹.

With B16 as the binder, how does the koff read?
Its koff is 0.046 s⁻¹.

How did the koff turn out when B17 was run?
Its koff is 0.00223 s⁻¹.

With B18 as the binder, how does the koff read?
The koff was 0.0063 s⁻¹.

B19 was tested. Which koff did it give?
Its koff is 0.0518 s⁻¹.

For B20, which koff is on record?
The koff was 0.00498 s⁻¹.

B21 was tested. Which koff did it give?
The koff was 0.00797 s⁻¹.

B22 was tested. Which koff did it give?
Its koff is 0.0471 s⁻¹.

For B23, which koff is on record?
Its koff is 0.0616 s⁻¹.

How did the koff turn out when B24 was run?
Its koff is 0.0581 s⁻¹.

Which koff does the source give for B25 here?
The koff was 0.0371 s⁻¹.

With B26 as the binder, how does the koff read?
The koff was 0.00658 s⁻¹.

For B27, which koff is on record?
Its koff is 0.00399 s⁻¹.

For B28, which koff is on record?
The koff was 0.00374 s⁻¹.

B29 was tested. Which koff did it give?
The koff was 0.00838 s⁻¹.

B30 was tested. Which koff did it give?
Its koff is 0.00977 s⁻¹.

Which koff does the source give for B31 here?
Its koff is 0.0281 s⁻¹.

How did the koff turn out when B32 was run?
Its koff is 0.04 s⁻¹.

B33 was tested. Which koff did it give?
Its koff is 0.00207 s⁻¹.

B34 was tested. Which koff did it give?
Its koff is 0.0385 s⁻¹.

With B35 as the binder, how does the koff read?
Its koff is 0.00601 s⁻¹.

Which koff does the source give for B36 here?
The koff was 0.0099 s⁻¹.

How did the koff turn out when B37 was run?
Its koff is 0.00685 s⁻¹.

For B38, which koff is on record?
The koff was 0.0501 s⁻¹.

Which koff does the source give for B39 here?
The koff was 0.0477 s⁻¹.

B40 was tested. Which koff did it give?
Its koff is 0.0401 s⁻¹.
